The record followed here is IntAct's records for PubMed 19318624.

The chains are these.
B1: Glycogen accumulation regulator GarA (Mycobacterium tuberculosis (strain ATCC 25618 / P9WJA9 (parent)
chain: MTDMNPDIEKDQTSDEVTVETTSVFRADFLSELDAPAQAGTESAVSGVEGLPPGSALLVVKRGPNAGSRFLLDQAITSAGRHPDSDIFLDDVTVSRRHAEFRLENNEFNVVDVGSLNGTYVNREPVDSAVLANGDEVQIGKFRLVFLTGPKQGEDDGSTGGP
B2: Glycogen accumulation regulator GarA (Mycobacterium tuberculosis (strain ATCC 25618 / P9WJA9 (parent)
chain: B1 chain
partner: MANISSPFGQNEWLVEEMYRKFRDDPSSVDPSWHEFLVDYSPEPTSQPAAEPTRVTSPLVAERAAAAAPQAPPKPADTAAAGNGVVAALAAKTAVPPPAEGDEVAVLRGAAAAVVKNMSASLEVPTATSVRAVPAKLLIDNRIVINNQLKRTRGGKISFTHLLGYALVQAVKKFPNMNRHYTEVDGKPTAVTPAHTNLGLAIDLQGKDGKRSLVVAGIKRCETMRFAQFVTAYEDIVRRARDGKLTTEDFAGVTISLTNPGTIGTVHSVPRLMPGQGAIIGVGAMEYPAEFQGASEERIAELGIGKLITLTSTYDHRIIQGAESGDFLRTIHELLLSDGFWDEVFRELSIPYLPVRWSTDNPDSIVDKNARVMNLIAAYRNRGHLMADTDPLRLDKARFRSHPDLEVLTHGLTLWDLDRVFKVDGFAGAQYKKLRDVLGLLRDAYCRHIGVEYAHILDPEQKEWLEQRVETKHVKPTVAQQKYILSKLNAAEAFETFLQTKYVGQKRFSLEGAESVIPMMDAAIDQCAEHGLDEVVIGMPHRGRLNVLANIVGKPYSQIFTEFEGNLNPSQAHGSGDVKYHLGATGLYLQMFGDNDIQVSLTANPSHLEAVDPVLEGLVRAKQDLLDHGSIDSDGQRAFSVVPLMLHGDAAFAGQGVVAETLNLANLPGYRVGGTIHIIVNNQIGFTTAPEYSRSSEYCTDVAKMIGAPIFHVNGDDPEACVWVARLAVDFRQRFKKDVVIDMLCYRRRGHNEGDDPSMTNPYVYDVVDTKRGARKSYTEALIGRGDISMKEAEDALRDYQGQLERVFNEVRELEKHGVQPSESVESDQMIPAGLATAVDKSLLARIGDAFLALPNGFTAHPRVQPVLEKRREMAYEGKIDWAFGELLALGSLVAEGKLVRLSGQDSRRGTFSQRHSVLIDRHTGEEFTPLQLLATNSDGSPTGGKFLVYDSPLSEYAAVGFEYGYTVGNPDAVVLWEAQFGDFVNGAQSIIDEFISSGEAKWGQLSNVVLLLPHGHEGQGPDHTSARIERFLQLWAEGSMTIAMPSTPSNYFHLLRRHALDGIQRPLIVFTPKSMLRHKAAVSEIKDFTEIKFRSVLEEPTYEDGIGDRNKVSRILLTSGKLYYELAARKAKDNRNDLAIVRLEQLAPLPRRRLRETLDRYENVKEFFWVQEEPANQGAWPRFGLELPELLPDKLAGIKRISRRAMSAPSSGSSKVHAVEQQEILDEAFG

The first assay covers variants of B1. The following applies: with gltb_myctu gltB.
MTDMNPDIEKDQTSDEVTVETTSVFRADFLSELDAPAQAGTESAVSGVEGLPPGSALLVVKRGPNAGSRFLLDQAITSAGRHPDSDIFLDDVTVARRHAEFRLENNEFNVVDVGSLNGTYVNREPVDSAVLANGDEVQIGKFRLVFLTGPKQGEDDGSTGGP [S95A]: the “effect of a mutation on the interaction” value was “disrupting interaction”.

On to MTDMNPDIEKDQTSDEVTVETTSVFRADFLSELDAPAQAGTESAVSGVEGLPPGSALLVVKRGPNAGSRFLLDQAITSAGRHPDSDIFLDDVTVSRRHAEFRLENNEFNVVDVGSLAGTYVNREPVDSAVLANGDEVQIGKFRLVFLTGPKQGEDDGSTGGP [N117A], for which the “effect of a mutation on the interaction” value is “disrupting interaction”.

On to MTDMNPDIEKDQTSDEVTVETTSVFRADFLSELDAPAQAGTESAVSGVEGLPPGSALLVVKRGPNAGSRFLLDQAITSAGRHPDSDIFLDDVTVSRRHAEFRLENNEFNVVDVGSLNGTYVNREPVDSAVLANGDEVQIGEFRLVFLTGPKQGEDDGSTGGP [K141E], for which the “effect of a mutation on the interaction” value is “disrupting interaction”.

Variants of B1 are the subject of a further assay. The settings on record: with dhe2_myctu gdh.
As for MTDMNPDIEKDQTSDEVTVETTSVFRADFLSELDAPAQAGTESAVSGVEGLPPGSALLVVKRGPNAGSRFLLDQAITSAGRHPDSDIFLDDVTVARRHAEFRLENNEFNVVDVGSLNGTYVNREPVDSAVLANGDEVQIGKFRLVFLTGPKQGEDDGSTGGP [S95A], the “effect of a mutation on the interaction” value is reported as “decreasing interaction”. MTDMNPDIEKDQTSDEVTVETTSVFRADFLSELDAPAQAGTESAVSGVEGLPPGSALLVVKRGPNAGSRFLLDQAITSAGRHPDSDIFLDDVTVSRRHAEFRLENNEFNVVDVGSLNGTYVNREPVDSAVLANGDEVQIGKFELVFLTGPKQGEDDGSTGGP [R143E]: the “effect of a mutation on the interaction” value was “disrupting interaction”. Same read-out and setting: the entry for MTDMNPDIEKDQTSDEVTVETTSVFRADFLSELDAPAQAGTESAVSGVEGLPPGSALLVVKRGPNAGSRFLLDQAITSAGRHPDSDIFLDDVTVSRRHAEFRLENNEFNVVDVGSLNGTYVNREPVDSAVLANGDEVQIGEFRLVFLTGPKQGEDDGSTGGP [K141E] is “disrupting interaction”.

Variants of B1 are the subject of another assay. The following applies: with dhe2_myctu gdh. This is another data set of the same source.
Turning to MTDMNPDIEKDQTSDEVTVETTSVFRADFLSELDAPAQAGTESAVSGVEGLPPGSALLVVKRGPNAGSRFLLDQAITSAGRHPDSDIFLDDVTVSRRHAEFRLENNEFNVVDVGSLAGTYVNREPVDSAVLANGDEVQIGKFRLVFLTGPKQGEDDGSTGGP [N117A], the “effect of a mutation on the interaction” value is listed as “decreasing interaction”.

The variants in a further assay derive from B2. The following applies: with kgd_myctu kgd.
Turning to MTDMNPDIEKDQTSDEVTVETTSVFRADFLSELDAPAQAGTESAVSGVEGLPPGSALLVVKRGPNAGSRFLLDQAITSAGRHPDSDIFLDDVTVSRRHAEFRLENNEFNVVDVGSLAGTYVNREPVDSAVLANGDEVQIGKFRLVFLTGPKQGEDDGSTGGP [N117A], the “effect of a mutation on the interaction” value was “disrupting interaction”.

In the case of MTDMNPDIEKDQTSDEVTVETTSVFRADFLSELDAPAQAGTESAVSGVEGLPPGSALLVVKRGPNAGSRFLLDQAITSAGRHPDSDIFLDDVTVSRRHAEFRLENNEFNVVDVGSLNGTYVNREPVDSAVLANGDEVQIGEFRLVFLTGPKQGEDDGSTGGP [K141E], the “effect of a mutation on the interaction” value is on record as “disrupting interaction”. For MTDMNPDIEKDQTSDEVTVETTSVFRADFLSELDAPAQAGTESAVSGVEGLPPGSALLVVKRGPNAGSRFLLDQAITSAGRHPDSDIFLDDVTVSRRHAEFRLENNEFNVVDVGSLNGTYVNREPVDSAVLANGDEVQIGKFELVFLTGPKQGEDDGSTGGP [R143E], the “effect of a mutation on the interaction” value was “disrupting interaction”.
